Test system: Escherichia coli TOP10
Assay: shrunken log2 fold change of peptide-encoding DNA abundance (4.5 h post-induction vs induction); higher = less antimicrobial activity (less host growth inhibition)
Conditions: time post-induction: 4.5 h; library: site-saturation at positions 5, 18, 19, 20
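Further: peptides expressed intracellularly from a pBAD plasmid library in pooled LB shake-flask culture, induced with 0.3% L-arabinose, DNA abundance read by NGS, three biological replicates, DESeq2 with apeglm shrinkage.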

Sequence | shrunken log2 fold change
RRIRQRPPRLPRPRPRPNWYPRP | -0.0479
RRIRERPPRLPRPRPRPTVYPRP | -0.194
RRIRIRPPRLPRPRPRPPSYPRP | -0.336
RRIRIRPPRLPRPRPRPGGFPRP | 0.179
RRIRSRPPRLPRPRPRPLLRPRP | -0.107
RRIRERPPRLPRPRPRPPTKPRP | 0.774
RRIRKRPPRLPRPRPRPIQRPRP | -0.0846
RRIRGRPPRLPRPRPRPTPQPRP | 1.05
RRIRMRPPRLPRPRPRPQVQPRP | -0.000946
RRIRIRPPRLPRPRPRPYFVPRP | -0.612
RRIRHRPPRLPRPRPRPLAMPRP | 0.287
RRIRGRPPRLPRPRPRPYSRPRP | -0.024
RRIRARPPRLPRPRPRPLISPRP | -0.0384
RRIRKRPPRLPRPRPRPSWEPRP | 0.153
RRIRGRPPRLPRPRPRPSRLPRP | 0.204
RRIRSRPPRLPRPRPRPYFLPRP | -0.885
RRIRRRPPRLPRPRPRPFQDPRP | -0.15
RRIRLRPPRLPRPRPRPMVCPRP | -0.0634
RRIRRRPPRLPRPRPRPTMCPRP | 0.233
RRIRRRPPRLPRPRPRPNVKPRP | 0.0575
RRIRHRPPRLPRPRPRPFPAPRP | -0.405
RRIRHRPPRLPRPRPRPKYGPRP | 0.0196
RRIRRRPPRLPRPRPRPTYCPRP | -0.0567
RRIRLRPPRLPRPRPRPDHLPRP | -0.0674
RRIRYRPPRLPRPRPRPGQHPRP | -0.179

Sequence | shrunken log2 fold change
RRIRLRPPRLPRPRPRPCGKPRP | -0.196
RRIRFRPPRLPRPRPRPRDKPRP | -0.102
RRIRDRPPRLPRPRPRPVNPPRP | 0.342
RRIRHRPPRLPRPRPRPCHAPRP | -0.0924
RRIRFRPPRLPRPRPRPIGHPRP | -0.115
RRIRERPPRLPRPRPRPLKWPRP | 0.159
RRIRPRPPRLPRPRPRPGDTPRP | -0.0266
RRIRQRPPRLPRPRPRPACPPRP | 0.0154
RRIRQRPPRLPRPRPRPRRKPRP | 0.192
RRIRDRPPRLPRPRPRPFRCPRP | -0.0101
RRIRNRPPRLPRPRPRPMARPRP | 0.0994
RRIRVRPPRLPRPRPRPFDFPRP | -0.266
RRIRTRPPRLPRPRPRPSQWPRP | -0.168
RRIRFRPPRLPRPRPRPHGHPRP | -0.18
RRIRERPPRLPRPRPRPTAKPRP | 0.0302
RRIRERPPRLPRPRPRPTANPRP | -0.154
RRIRKRPPRLPRPRPRPTGWPRP | 1.44
RRIRKRPPRLPRPRPRPVTWPRP | 0.0106
RRIRQRPPRLPRPRPRPFHEPRP | -0.0703
RRIRCRPPRLPRPRPRPMVPPRP | -0.354
RRIRDRPPRLPRPRPRPVPPPRP | 0.453
RRIRERPPRLPRPRPRPVDVPRP | 0.064
RRIRFRPPRLPRPRPRPFQVPRP | -0.309
RRIRIRPPRLPRPRPRPRGAPRP | 0.175
RRIRIRPPRLPRPRPRPDPQPRP | -0.186

Sequence | shrunken log2 fold change
RRIRWRPPRLPRPRPRPHFAPRP | 0.046
RRIRERPPRLPRPRPRPDKNPRP | -0.383
RRIRTRPPRLPRPRPRPWYFPRP | -0.432
RRIRYRPPRLPRPRPRPCWIPRP | -0.01
RRIRHRPPRLPRPRPRPMNFPRP | -0.0483
RRIRPRPPRLPRPRPRPKWTPRP | -0.0336
RRIRPRPPRLPRPRPRPWHDPRP | -0.112
RRIRVRPPRLPRPRPRPLWIPRP | -0.189
RRIRHRPPRLPRPRPRPAFFPRP | 0.0438
RRIRVRPPRLPRPRPRPIKEPRP | -0.327
RRIRPRPPRLPRPRPRPISVPRP | -0.171
RRIRLRPPRLPRPRPRPFWYPRP | -0.0126
RRIRIRPPRLPRPRPRPLGDPRP | -0.0585
RRIRHRPPRLPRPRPRPSKWPRP | -0.452
RRIRFRPPRLPRPRPRPDCGPRP | -0.107
RRIRDRPPRLPRPRPRPLHKPRP | 0.0824
RRIRFRPPRLPRPRPRPLGVPRP | 0.0349
RRIRKRPPRLPRPRPRPPKSPRP | 0.462
RRIRCRPPRLPRPRPRPEDQPRP | 1.21
RRIRRRPPRLPRPRPRPTRMPRP | 1.08
RRIRTRPPRLPRPRPRPMEYPRP | -0.0122
RRIRMRPPRLPRPRPRPVGMPRP | 0.366
RRIRYRPPRLPRPRPRPEMMPRP | -0.0745
RRIRNRPPRLPRPRPRPWLKPRP | -0.0113
RRIRKRPPRLPRPRPRPYVYPRP | -0.154

Sequence | shrunken log2 fold change
RRIRSRPPRLPRPRPRPQSHPRP | -0.216
RRIRSRPPRLPRPRPRPPTSPRP | 0.0457
RRIRERPPRLPRPRPRPADNPRP | -0.03
RRIRTRPPRLPRPRPRPNTKPRP | -0.337
RRIRMRPPRLPRPRPRPHRLPRP | 0.108
RRIRNRPPRLPRPRPRPINQPRP | -0.14
RRIRCRPPRLPRPRPRPNIGPRP | -0.138
RRIRTRPPRLPRPRPRPFWKPRP | 0.0184
RRIRLRPPRLPRPRPRPTDVPRP | -0.524
RRIRYRPPRLPRPRPRPMRCPRP | -0.000627
RRIRGRPPRLPRPRPRPLQAPRP | 1.86
RRIRIRPPRLPRPRPRPNNRPRP | -0.557
RRIRNRPPRLPRPRPRPDVLPRP | -0.0481
RRIRYRPPRLPRPRPRPPFRPRP | -0.0932
RRIRSRPPRLPRPRPRPPHRPRP | 0.182
RRIRFRPPRLPRPRPRPITTPRP | -0.198
RRIRTRPPRLPRPRPRPRHFPRP | -0.085
RRIRIRPPRLPRPRPRPYKTPRP | -0.0104
RRIRFRPPRLPRPRPRPTNDPRP | -0.414
RRIRMRPPRLPRPRPRPEVVPRP | 2.97
RRIRKRPPRLPRPRPRPFQVPRP | 0.0377
RRIRVRPPRLPRPRPRPYSLPRP | -0.533
RRIRGRPPRLPRPRPRPMWDPRP | 0.639
RRIRKRPPRLPRPRPRPYTKPRP | -0.138
RRIRTRPPRLPRPRPRPDKPPRP | 0.0877

Sequence | shrunken log2 fold change
RRIRMRPPRLPRPRPRPCSIPRP | -0.0306
RRIRQRPPRLPRPRPRPHMQPRP | -0.288
RRIRHRPPRLPRPRPRPVIFPRP | -0.395
RRIRSRPPRLPRPRPRPLGQPRP | -0.0571
RRIRWRPPRLPRPRPRPYFLPRP | -0.757
RRIRSRPPRLPRPRPRPMFRPRP | -0.338
RRIRFRPPRLPRPRPRPIINPRP | -0.869
RRIRDRPPRLPRPRPRPTPVPRP | 0.405
RRIRARPPRLPRPRPRPELGPRP | 1.43
RRIRSRPPRLPRPRPRPNVAPRP | -0.0788
RRIRWRPPRLPRPRPRPPKCPRP | 0.156
RRIRDRPPRLPRPRPRPHMCPRP | 0.0514
RRIRYRPPRLPRPRPRPWLDPRP | -0.225
RRIRIRPPRLPRPRPRPDAAPRP | 0.432
RRIRWRPPRLPRPRPRPKDNPRP | -0.00672
RRIRDRPPRLPRPRPRPLFEPRP | 0.7
RRIRYRPPRLPRPRPRPLYLPRP | -0.992
RRIRTRPPRLPRPRPRPRGSPRP | 0.177
RRIRLRPPRLPRPRPRPICRPRP | -0.13
RRIRVRPPRLPRPRPRPQYEPRP | -0.174
RRIRCRPPRLPRPRPRPLDAPRP | 0.123
RRIRYRPPRLPRPRPRPSQFPRP | -0.257
RRIRNRPPRLPRPRPRPTITPRP | -0.455
RRIRARPPRLPRPRPRPRNMPRP | 0.263
RRIRFRPPRLPRPRPRPMVAPRP | 0.297

Sequence | shrunken log2 fold change
RRIRMRPPRLPRPRPRPGPAPRP | 1.71
RRIRLRPPRLPRPRPRPLCCPRP | -0.146
RRIRCRPPRLPRPRPRPNMEPRP | -0.237
RRIRIRPPRLPRPRPRPYMRPRP | 0.0163
RRIRRRPPRLPRPRPRPTCNPRP | 0.026
RRIRERPPRLPRPRPRPPHTPRP | -0.152
RRIRGRPPRLPRPRPRPMIVPRP | 0.554
RRIRLRPPRLPRPRPRPFFAPRP | 0.169
RRIRERPPRLPRPRPRPGGHPRP | 0.0363
RRIRERPPRLPRPRPRPYWSPRP | -0.568
RRIRERPPRLPRPRPRPIYHPRP | -0.626
RRIRFRPPRLPRPRPRPSYGPRP | -0.37
RRIRSRPPRLPRPRPRPDDHPRP | -0.0124
RRIRARPPRLPRPRPRPNVQPRP | 0.109
RRIRQRPPRLPRPRPRPAPHPRP | 0.343
RRIRRRPPRLPRPRPRPWLIPRP | -0.319
RRIRMRPPRLPRPRPRPKGVPRP | 1.1
RRIRHRPPRLPRPRPRPCVHPRP | -0.00151
RRIRVRPPRLPRPRPRPVVKPRP | -0.214
RRIRRRPPRLPRPRPRPSRLPRP | 0.177
RRIRLRPPRLPRPRPRPFWKPRP | 0.379
RRIRTRPPRLPRPRPRPDRRPRP | 0.0647
RRIRWRPPRLPRPRPRPYSNPRP | -0.2
RRIRYRPPRLPRPRPRPQMIPRP | 0.0722
RRIRARPPRLPRPRPRPGNGPRP | 0.275

— the supplement of paper PMC9112550, “Optimization of the antimicrobial peptide Bac7 by deep mutational scanning” (BMC Biology, 2022)
